Test results: patent US20250136713A1 (DENALI THERAPEUTICS, published 2025)

biological target: T1, recombinant HER2 extracellular domain (ECD) (human, UniProt P04626 23-652); assay: SPR (Biacore 8K), antibody captured by anti-human Fab, HER2 ECD injected
T1 construct: extracellular domain; also called HER2 ECD

binding result	Binder
no binding	Anti-HER2_D2 light chain control (SEQ ID NO: 94) paired with Anti-HER2_D4 heavy chain control (SEQ ID NO: 93) (antibody, human IgG1, kappa, V domains shown) VH: not shown VL: DIQMTQSPSSLSASVGDRVTITCKASQDVSIGVAWYQQKPGKAPKLLIYSASYRYTGVPSRFSGSGSGTDFTLTISSLQPEDFATYYCQQYYIYPYTFGQGTKVEIKR

biological target: T1, recombinant HER2 extracellular domain …; assay: SPR (Biacore 8K), antibody captured by anti-human Fab, HER2 ECD injected, 1:1 fit
Description: (§1) HER2 extracellular domain (ECD) binding affinities of engineered anti-HER2 antibodies were measured by SPR using a Biacore 8K instrument. Antibodies were captured on Biacore™ Series S CM5 sensor chips immobilized with mouse anti-human Fab (human Fab capture kit from GE Healthcare) followed by injections of serial 3-fold dilutions of recombinant HER2 ECD at a flow rate of 30 μL/min. Each sample was analyzed using a 3-minute association followed by a 10-minute dissociation. After each injection, the sensor chip was regenerated using a 50 mM glycine pH2.0 regeneration buffer. A 1:1 Languir model of simultaneous fitting of kₒₙ and koff was used for kinetics analysis.

Kd [nM]	Binder
14	SEQ ID NO: 10 light chain paired with Anti-HER2_D2 heavy chain control (SEQ ID NO: 92) (antibody, human IgG1, kappa, V domains shown) VH: EVQLVESGGGLVQPGGSLRLSCAASGFTFTDYTMDWVRQAPGKGLEWVADVNPNSGGSIYNQRFKGRFTLSVDRSKNTLYLQMNSLRAEDTAVYYCARNLGPSFYFDYWGQGTLVTVSS VL: not shown
13	SEQ ID NO: 9 light chain paired with Anti-HER2_D2 heavy chain control (SEQ ID NO: 92) (antibody, human IgG1, kappa, V domains shown) VH: EVQLVESGGGLVQPGGSLRLSCAASGFTFTDYTMDWVRQAPGKGLEWVADVNPNSGGSIYNQRFKGRFTLSVDRSKNTLYLQMNSLRAEDTAVYYCARNLGPSFYFDYWGQGTLVTVSS VL: not shown

biological target: T1, recombinant HER2 extracellular domain …; assay: as above; remark: another data set of the same source
Description: as §1

Binder	Kd [nM]
Anti-HER2_D2 heavy chain comprising the VH region of SEQ ID NO: 2 paired with Anti-HER2_D4 light chain control (SEQ ID NO: 87) (antibody, V domains shown) VH: EVQLVESGGGLVQPGGSLRLSCAASGFTFTDYTMDWVRQAPGKGLEWVADVNPNSGGSIYNQRFKGRFTLSVDRSKNTLYLQMNSLRAEDTAVYYCARNLGPLFYFDYWGQGTLVTVSS VL: not shown	28
Anti-HER2_D2 heavy chain comprising the VH region of SEQ ID NO: 66 paired with Anti-HER2_D4 light chain control (SEQ ID NO: 87) (antibody, V domains shown) VH: EVQLVESGGGLVQPGGSLRLSCAASGFTFTDYTMDWVRQAPGKGLEWVADVNPNSGGSIYNTRFKGRFTLSVDRSKNTLYLQMNSLRAEDTAVYYCARNLGPSFYFDYWGQGTLVTVSS VL: not shown	32.3
Anti-HER2_D4 light chain control (SEQ ID NO: 87) paired with Anti-HER2_D2 heavy chain control (SEQ ID NO: 92) (antibody, human IgG1, kappa, V domains shown) VH: EVQLVESGGGLVQPGGSLRLSCAASGFTFTDYTMDWVRQAPGKGLEWVADVNPNSGGSIYNQRFKGRFTLSVDRSKNTLYLQMNSLRAEDTAVYYCARNLGPSFYFDYWGQGTLVTVSS VL: not shown	42
Anti-HER2_D2 heavy chain comprising the VH region of SEQ ID NO: 65 paired with Anti-HER2_D4 light chain control (SEQ ID NO: 87) (antibody, V domains shown) VH: EVQLVESGGGLVQPGGSLRLSCAASGFTFTDYTMDWVRQAPGKGLEWVADVNPNSGGSIYNHRFKGRFTLSVDRSKNTLYLQMNSLRAEDTAVYYCARNLGPSFYFDYWGQGTLVTVSS VL: not shown	35

Next, values leading:

Kd [nM]	Binder
9.8	Anti-HER2_D2 heavy chain comprising the VH region of SEQ ID NO: 68 paired with Anti-HER2_D4 light chain control (SEQ ID NO: 87) (antibody, V domains shown) VH: EVQLVESGGGLVQPGGSLRLSCAASGFTFTDYTMDWVRQAPGKGLEWVADVNPNSGGSIYNQRFKGRFTLSVDRSKNTLYLQMNSLRAEDTAVYYCARNLGPFFYFDYWGQGTLVTVSS VL: not shown
17.5	Anti-HER2_D2 heavy chain comprising the VH region of SEQ ID NO: 61 paired with Anti-HER2_D4 light chain control (SEQ ID NO: 87) (antibody, V domains shown) VH: EVQLVESGGGLVQPGGSLRLSCAASGFKFTDYTMDWVRQAPGKGLEWVADVNPNSGGSIYNQRFKGRFTLSVDRSKNTLYLQMNSLRAEDTAVYYCARNLGPSFYFDYWGQGTLVTVSS VL: not shown
10.2	Anti-HER2_D2 heavy chain comprising the VH region of SEQ ID NO: 69 paired with Anti-HER2_D4 light chain control (SEQ ID NO: 87) (antibody, V domains shown) VH: EVQLVESGGGLVQPGGSLRLSCAASGFTFTDYTMDWVRQAPGKGLEWVADVNPNSGGSIYNQRFKGRFTLSVDRSKNTLYLQMNSLRAEDTAVYYCARNLGPDFYFDYWGQGTLVTVSS VL: not shown
30	Anti-HER2_D2 heavy chain comprising the VH region of SEQ ID NO: 70 paired with Anti-HER2_D4 light chain control (SEQ ID NO: 87) (antibody, V domains shown) VH: EVQLVESGGGLVQPGGSLRLSCAASGFTFTDYTMDWVRQAPGKGLEWVADVNPNSGGSIYNQRFKGRFTLSVDRSKNTLYLQMNSLRAEDTAVYYCARNLGPYFYFDYWGQGTLVTVSS VL: not shown
6.1	Anti-HER2_D2 heavy chain comprising the VH region of SEQ ID NO: 67 paired with Anti-HER2_D4 light chain control (SEQ ID NO: 87) (antibody, V domains shown) VH: EVQLVESGGGLVQPGGSLRLSCAASGFTFTDYTMDWVRQAPGKGLEWVADVNPNSGGSIYNQRFKGRFTLSVDRSKNTLYLQMNSLRAEDTAVYYCARNLGPWFYFDYWGQGTLVTVSS VL: not shown
28	Anti-HER2_D2 heavy chain comprising the VH region of SEQ ID NO: 1 paired with Anti-HER2_D4 light chain control (SEQ ID NO: 87) (antibody, V domains shown) VH: EVQLVESGGGLVQPGGSLRLSCAASGFTFTDYTMDWVRQAPGKGLEWVADVNPNSGQSIYNQRFKGRFTLSVDRSKNTLYLQMNSLRAEDTAVYYCARNLGPSFYFDYWGQGTLVTVSS VL: not shown
22.1	Anti-HER2_D2 heavy chain comprising the VH region of SEQ ID NO: 63 paired with Anti-HER2_D4 light chain control (SEQ ID NO: 87) (antibody, V domains shown) VH: EVQLVESGGGLVQPGGSLRLSCAASGFHFTDYTMDWVRQAPGKGLEWVADVNPNSGGSIYNQRFKGRFTLSVDRSKNTLYLQMNSLRAEDTAVYYCARNLGPSFYFDYWGQGTLVTVSS VL: not shown
18.3	Anti-HER2_D2 heavy chain comprising the VH region of SEQ ID NO: 62 paired with Anti-HER2_D4 light chain control (SEQ ID NO: 87) (antibody, V domains shown) VH: EVQLVESGGGLVQPGGSLRLSCAASGFMFTDYTMDWVRQAPGKGLEWVADVNPNSGGSIYNQRFKGRFTLSVDRSKNTLYLQMNSLRAEDTAVYYCARNLGPSFYFDYWGQGTLVTVSS VL: not shown
28	Anti-HER2_D2 heavy chain comprising the VH region of SEQ ID NO: 60 paired with Anti-HER2_D4 light chain control (SEQ ID NO: 87) (antibody, V domains shown) VH: EVQLVESGGGLVQPGGSLRLSCAASGFNFTDYTMDWVRQAPGKGLEWVADVNPNSGGSIYNQRFKGRFTLSVDRSKNTLYLQMNSLRAEDTAVYYCARNLGPSFYFDYWGQGTLVTVSS VL: not shown
21	Anti-HER2_D2 heavy chain comprising the VH region of SEQ ID NO: 64 paired with Anti-HER2_D4 light chain control (SEQ ID NO: 87) (antibody, V domains shown) VH: EVQLVESGGGLVQPGGSLRLSCAASGFTFTDYTMDWVRQAPGKGLEWVADVNPNSGGSIYNRRFKGRFTLSVDRSKNTLYLQMNSLRAEDTAVYYCARNLGPSFYFDYWGQGTLVTVSS VL: not shown

biological target: T1, recombinant HER2 extracellular domain …; assay: as above; remark: another data set of the same source
Description: as §1

Kd [nM]	Binder
4.2	SEQ ID NO: 10 light chain paired with anti-HER2_D2 heavy chain comprising the VH region of SEQ ID NO: 1 (antibody, V domains shown) VH: EVQLVESGGGLVQPGGSLRLSCAASGFTFTDYTMDWVRQAPGKGLEWVADVNPNSGQSIYNQRFKGRFTLSVDRSKNTLYLQMNSLRAEDTAVYYCARNLGPSFYFDYWGQGTLVTVSS VL: not shown
2.1	SEQ ID NO: 10 light chain paired with anti-HER2_D2 heavy chain comprising the VH region of SEQ ID NO: 3 (antibody, V domains shown) VH: EVQLVESGGGLVQPGGSLRLSCAASGFTFTDYTMDWVRQAPGKGLEWVADVNPNSGQSIYNQRFKGRFTLSVDRSKNTLYLQMNSLRAEDTAVYYCARNLGPLFYFDYWGQGTLVTVSS VL: not shown
6.2	SEQ ID NO: 10 light chain paired with anti-HER2_D2 heavy chain comprising the VH region of SEQ ID NO: 2 (antibody, V domains shown) VH: EVQLVESGGGLVQPGGSLRLSCAASGFTFTDYTMDWVRQAPGKGLEWVADVNPNSGGSIYNQRFKGRFTLSVDRSKNTLYLQMNSLRAEDTAVYYCARNLGPLFYFDYWGQGTLVTVSS VL: not shown

biological target: T1, recombinant HER2 extracellular domain …; assay: SPR (Biacore 8K), antibody captured by anti-human Fab, HER2 ECD injected, 1:1 fit; LC SEQ ID NO: 87 paired with Anti-HER2_D2 heavy chain control (SEQ ID NO: 92)
Description: as §1

Kd [nM]	Binder
41	Anti-HER2_D4 light chain control (SEQ ID NO: 87) paired with Anti-HER2_D2 heavy chain control (SEQ ID NO: 92) (antibody, human IgG1, kappa, V domains shown) VH: EVQLVESGGGLVQPGGSLRLSCAASGFTFTDYTMDWVRQAPGKGLEWVADVNPNSGGSIYNQRFKGRFTLSVDRSKNTLYLQMNSLRAEDTAVYYCARNLGPSFYFDYWGQGTLVTVSS VL: not shown
